From patent US20130266574A1 (Regeneron, published 2013) come the findings set out here.

Assay [1] has as its target T1, hANGPTL4 peptide (R34-L66 of SEQ ID NO:476) (human).
T1 peptide: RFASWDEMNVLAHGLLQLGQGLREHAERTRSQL
The assay can be described thus: SPR (Biacore), antibody captured on anti-human Fc, peptide injected. How it is done: (§1) Further, the binding affinities of H1H268P and H1H284P for various ANGPTL3 and ANGPTL4 peptides were also determined by BIACORE™ system. Briefly, H1H268P (1348±11 RU) and H1H284P (868±13 RU) were captured over anti-human Fc surface and various concentrations (62.5 nM-500 nM) of the hANGPTL3 and hANGPTL4 peptides were injected. […] Kinetic analysis was performed to measure kₐ and kd, and KD values and half-life of antigen/antibody complex dissociation were calculated. NB: No binding under the experimental conditions described.
(In general: In SPR one partner is held on a chip, and binding of the other changes the refractive index at the surface.)

The target in assay [2] is T2, N-terminally biotinylated hANGPTL4 peptide (R34-L66 of SEQ ID NO:476) (human, N-terminal biotin).
T2 construct: also called hANGPTL4-Nterm biotin
T2 peptide: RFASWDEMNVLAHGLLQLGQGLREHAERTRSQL
Described as above. How it is done: as §1

In assay [3] the target is T3, N-terminally biotinylated hANGPTL3 peptide (R36-I68 of SEQ ID NO:485) (human, N-terminal biotin).
T3 construct: also called hANGPTL3-Nterm biotin
T3 peptide: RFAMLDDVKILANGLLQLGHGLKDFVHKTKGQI
The assay is described as above. How it is done: as §1

In assay [4] the target is T4, hANGPTL3 peptide (R36-I68 of SEQ ID NO:485) (human).
T4 peptide: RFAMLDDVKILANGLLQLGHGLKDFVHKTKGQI
The description is as above. How it is done: as §1

Assay [5] has as its target T5, full-length hANGPTL4 (amino acid residues 26-406 of SEQ ID NO:476) with a C-terminal hexa-histidine tag (human, UniProt Q9BY76 26-406).
T5 construct: also called hANGPTL4-His; hANGPTL4(26-406)-His
T5 sequence: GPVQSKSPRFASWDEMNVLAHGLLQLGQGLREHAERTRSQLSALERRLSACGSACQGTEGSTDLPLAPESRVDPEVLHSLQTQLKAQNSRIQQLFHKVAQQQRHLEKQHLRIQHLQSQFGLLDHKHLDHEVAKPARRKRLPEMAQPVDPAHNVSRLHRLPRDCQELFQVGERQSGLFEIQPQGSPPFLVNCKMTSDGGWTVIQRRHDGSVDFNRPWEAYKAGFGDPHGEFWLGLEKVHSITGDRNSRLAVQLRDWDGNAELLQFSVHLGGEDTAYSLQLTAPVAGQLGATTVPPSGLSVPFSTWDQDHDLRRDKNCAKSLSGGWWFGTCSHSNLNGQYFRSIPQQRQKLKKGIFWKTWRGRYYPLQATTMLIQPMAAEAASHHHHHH
Put plainly: SPR (Biacore), 25° C., pH 7.2, antigen amino-coupled 450 RU. How it is done: (§2) Kinetic analysis was performed to measure kₐ and kd, and KD values and half-life of antigen/antibody complex dissociation were calculated. The results are shown in Table 4 (H1H268P) and Table 5 (H1H284P).

Assay [6] deals with T5, full-length hANGPTL4 (amino acid …). Put plainly: cell-based or functional assay.
The target of assay [7] is T6, amino acid residues 26-148 of human ANGPTL4 fused in-line to mouse IgG2a (hANGPTL4-mFc) (human).
T6 chain: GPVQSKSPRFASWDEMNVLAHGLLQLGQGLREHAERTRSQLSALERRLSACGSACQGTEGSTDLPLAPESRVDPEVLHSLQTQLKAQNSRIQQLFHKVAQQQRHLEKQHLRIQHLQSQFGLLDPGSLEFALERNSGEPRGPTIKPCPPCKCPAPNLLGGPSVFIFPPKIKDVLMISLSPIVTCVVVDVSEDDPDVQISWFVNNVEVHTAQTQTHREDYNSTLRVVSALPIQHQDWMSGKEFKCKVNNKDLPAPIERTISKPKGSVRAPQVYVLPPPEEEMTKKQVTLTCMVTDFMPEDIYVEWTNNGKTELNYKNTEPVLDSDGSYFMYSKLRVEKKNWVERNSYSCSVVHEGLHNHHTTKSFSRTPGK
The assay can be described thus: cell-based or functional assay.

In assay [8] the target is T5, full-length hANGPTL4 (amino acid …). Put plainly: cell-based or functional assay. This is another data set of the same source.
Assay [9] concerns the target T6, amino acid residues 26-148 of human …. Put plainly: cell-based or functional assay.
Assay [10] has as its target T7, cynomolgus monkey ANGPTL4 N-terminal region (amino acid residues 26-148) with an N-terminal hexa-histidine tag (cynomolgus monkey, UniProt Q9BY76 26-148 (human entry)).
T7 chain: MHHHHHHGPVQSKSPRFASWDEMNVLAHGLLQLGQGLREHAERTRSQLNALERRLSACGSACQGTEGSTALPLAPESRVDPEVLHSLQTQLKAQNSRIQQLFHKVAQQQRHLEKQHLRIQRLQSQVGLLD
Put plainly: cell-based or functional assay.

Assay [11] deals with T5, full-length hANGPTL4 (amino acid …). Put plainly: cell-based or functional assay. The source holds these as a separate data set.
The target in assay [12] is T6, amino acid residues 26-148 of human …. The assay can be described thus: cell-based or functional assay.
The target is the same in assay [13]. The assay can be described thus: SPR (Biacore), 25° C., pH 5.75, antigen captured by anti-mFc. How it is done:
as §2

B1: H1H284P (antibody, V domains shown)
VH: QVQLVESGGGVVQPGRSLRLSCAASGFTFSSYGMHWVRQAPGKGLEWMAVISFDGGNKNNADSVKGRFTISRDNSKNTLYLQMNSLRAEDTAVYYCAKEGDRSGHPYFYYYGLDVWGQGTTVTVS
VL: DIQLTQSPSFLSASVGDRVTITCWASQGISSYLAWYQQKPGKAPKLLIYAASTLQSGVPSRFSGSGSETEFTLTISSLQPEDFATYYCQQLHSYPLTFGGGTKVEIK
notes: also called entire H1H284 mAb; Full mAb
The Kd is the concentration at which binding is half-saturated. As a reminder, the koff is the first-order rate constant of dissociation. Usually kon stands for the second-order rate constant of association. In the case of B1, the binding result in [1] is “no binding (tested: 500 nM)”; in [2], “no binding (tested: 500 nM)”; in assay [3], “no binding (tested: 62.5 nM-500 nM)”; in [4], “no binding (tested: 62.5 nM-500 nM)”. Moreover, the dissociation constant (Kd) in assay [5] worked out at 105 pM; in assay [13], 81.9 pM. Also, the koff in assay [5] is 8.85e-05 s⁻¹; in [13], 8.91e-05 s⁻¹. Further, the kon turned out to be 850000 M⁻¹ s⁻¹ in assay [5] and 1.09e+06 M⁻¹ s⁻¹ in assay [13]. Moreover, the t1/2 in [5] and in assay [13] was 2.17 h each time. Also, in [6], the “IC50, antibody concentration required for 50% maximum inhibition of 10 nM hANGPTL4-His (LPL lipase test)” value was found to be 500 pM. In assay [7], the “IC50, antibody concentration required for 50% maximum inhibition of 2 nM hANGPTL4-mFc (LPL lipase test)” value is 800 pM. Moreover, in assay [8], the “% Inhibition of hANGPTL4 Activity (LPL lipase test), hANGPTL4-His (10 nM)” value was found to be 90%. For the same molecule, the “% Inhibition of hANGPTL4 Activity (LPL lipase test), hANGPTL4-mFc (2 nM)” value in assay [9] is 82%. Also, the “IC50 (nM) in the LPL bioassay, constant ANGPTL4 10 nM” value in [10] was 0.42 nM; in assay [11], 0.31 nM. Besides, the “IC50 (nM) in the LPL bioassay, constant ANGPTL4 2 nM” value in assay [12] worked out at 0.51 nM.

B2: H1H268P (antibody, V domains shown)
VH: QVQLQESGAGLLKPSETLSLTCTVYGGSFSIHHWTWIRHPPGKGLEWIGEINHRGSTNYNPSLKSRVTISIDTSKNQFSLKLSAVTAADTAVYYCARGLRFLDWLSSYFDYWGQGTLVTVSS
VL: DIQMTQSPSSLSASVGDRVTITCRASQGISDYLAWYQQKPGKVPNLLIYAASALQSGVPSRFSGSGSGTDFTLTISSLQPEDVATYYCQNYNTAPLTFGGGTKVEIK
notes: also called entire H1H268 mAb; Full mAb
B2: the Kd came out at 56300 pM in [1], 64800 pM in assay [2], 408 pM in assay [5] and 220 pM in assay [13]. Besides, the koff stood at 0.000365 s⁻¹ in assay [1], 0.000294 s⁻¹ in assay [2], 0.0002 s⁻¹ in assay [5] and 0.000138 s⁻¹ in assay [13]. Moreover, the kon in assay [1] was found to be 6490 M⁻¹ s⁻¹; in [2] it was 4530 M⁻¹ s⁻¹; in [5] it was 489000 M⁻¹ s⁻¹; in assay [13] it was 628000 M⁻¹ s⁻¹. Further, the t1/2 in assay [1] was found to be 0.533 h; in [2] it was 0.65 h; in assay [5], 0.967 h; in assay [13] it was 1.4 h. The binding result in assay [3] and in assay [4] was “no binding (tested: 62.5 nM-500 nM)” each time. The “IC50, antibody concentration required for 50% maximum inhibition of 10 nM hANGPTL4-His (LPL lipase test)” value in assay [6] was 200 pM. Also, in [7], the “IC50, antibody concentration required for 50% maximum inhibition of 2 nM hANGPTL4-mFc (LPL lipase test)” value was 1200 pM. Moreover, the “% Inhibition of hANGPTL4 Activity (LPL lipase test), hANGPTL4-His (10 nM)” value in assay [8] was 80%. Moreover, the “% Inhibition of hANGPTL4 Activity (LPL lipase test), hANGPTL4-mFc (2 nM)” value in [9] is 76%. Besides, the “IC50 (nM) in the LPL bioassay, constant ANGPTL4 10 nM” value stood at 0.42 nM in [10] and 0.46 nM in [11]. Also, the “IC50 (nM) in the LPL bioassay, constant ANGPTL4 2 nM” value in assay [12] was 0.47 nM.
